Reference: PMC8802628, “Selective activation of PFKL suppresses the phagocytic oxidative burst” (Cell, 2021)
Residue numbers refer to the chain shown, from its start. Names may count otherwise. “And” between values parts separate entries of the source, which are not always exact repeats. Equal entries are not always repeated.

Key:
[1] = target: the molecule itself; test: cryo-EM structure; 9 uM purified PFKL with 1 mM ATP, 2 mM F6P and 50 uM NA-11 in 20 mM HEPES pH 7.5, 1 mM DTT, 500 uM ammonium sulfate, 5% glycerol, 100 uM EDTA; refinement focused on a single, masked tetramer
[2] = substrate: O=C(CO)[C@@H](O)[C@H](O)[C@H](O)COP(=O)(O)O; test: Recombinant PFKL activity assay (relief of ATP inhibition); assay type: biochemical, human; settings: other: PFKL wild type, pH 7.5, 225 μM ATP, 25.0 °C
Text: (§1) Recombinant N-terminal His-tagged human PFKL (NP_002617), PFKM (NP_000280), and PFKP (NM_002627.4) were generated as described ([Webb et al., 2015], [2017]). Point mutants of PFK1 were generated using the QuikChange Lightning kit (Aligent).
(§2) His-tagged PFK1 was expressed and purified as described with slight modifications ([Webb et al., 2015], [2017]). Briefly, baculovirus was generated using the Bac-to-Bac Expression system (Invitrogen). PFK1 was expressed in 2-5 × 10^6 sf9 cells at a multiplicity of infection of two for 48 h. […] Protein was quantified using a Bradford Protein Assay kit (ThermoFisher Scientific), and aliquotes frozen in liquid nitrogen for storage at −80°C.
(§3) PFK1 activity was determined using the rate of FBP production via an auxiliary enzyme assay adapted to a 96-well format ([Brüser et al., 2012]; [Webb et al., 2015]). […] For assays containing FBP, the rate of ADP production was determined using the auxiliary enzymes pyruvate kinase (PK) and lactate dehydrogenase (LDH) (MilliporeSigma) in a buffer containing 250 μM phosphoenolpyruvic acid, […] NADH, 50 mM HEPES pH 7.5, 100 mM KCl, 1 mM DTT, and effector concentrations as described in the text. […] Absorbance at 340 nm was measured using a Varioskan LUX Multimode microplate reader (ThermoFisher). […]

[3] = substrate: O=C(CO)[C@@H](O)[C@H](O)[C@H](O)COP(=O)(O)O; test: Recombinant PFKL−hook activity assay; assay type: biochemical, human; settings: other: PFKL−hook, pH 7.5, 225 μM ATP, 25.0 °C
Text: as §1, §2, §3

[4] = substrate: O=C(CO)[C@@H](O)[C@H](O)[C@H](O)COP(=O)(O)O; test: Recombinant PFKL−pocket activity assay; assay type: biochemical, human; settings: other: PFKL−pocket, pH 7.5, 225 μM ATP, 25.0 °C
Text: as §1, §2, §3

B1: phosphofructokinase-1 liver type (PFKL), human, recombinant N-terminal His-tagged (enzyme)
chain: MAAVDLEKLRASGAGKAIGVLTSGGDAQGMNAAVRAVTRMGIYVGAKVFLIYEGYEGLVEGGENIKQANWLSVSNIIQLGGTIIGSARCKAFTTREGRRAAAYNLVQHGITNLCVIGGDGSLTGANIFRSEWGSLLEELVAEGKISETTARTYSHLNIAGLVGSIDNDFCGTDMTIGTDSALHRIMEVIDAITTTAQSHQRTFVLEVMGRHCGYLALVSALASGADWLFIPEAPPEDGWENFMCERLGETRSRGSRLNIIIIAEGAIDRNGKPISSSYVKDLVVQRLGFDTRVTVLGHVQRGGTPSAFDRILSSKMGMEAVMALLEATPDTPACVVTLSGNQSVRLPLMECVQMTKEVQKAMDDKRFDEATQLRGGSFENNWNIYKLLAHQKPPKEKSNFSLAILNVGAPAAGMNAAVRSAVRTGISHGHTVYVVHDGFEGLAKGQVQEVGWHDVAGWLGRGGSMLGTKRTLPKGQLESIVENIRIYGIHALLVVGGFEAYEGVLQLVEARGRYEELCIVMCVIPATISNNVPGTDFSLGSDTAVNAAMESCDRIKQSASGTKRRVFIVETMGGYCGYLATVTGIAVGADAAYVFEDPFNIHDLKVNVEHMTEKMKTDIQRGLVLRNEKCHDYYTTEFLYNLYSSEGKGVFDCRTNVLGHLQQGGAPTPFDRNYGTKLGVKAMLWLSEKLREVYRKGRVFANAPDSACVIGLKKKAVAFSPVTELKKDTDFEHRMPREQWWLSLRLMLKMLAQYRISMAAYVSGELEHVTRRTLSMDKGF
notes: human phosphofructokinase-1 liver type (PFKL), NP_002617; Homotetramer; In cryo-EM it mostly formed stacked pairs of tetramers; The sample held ATP, F6P and the small molecule NA-11; also called PFK1 liver isoform; wild-type PFKL; source: Sf9 cells (baculovirus, Bac-to-Bac), purified (HisPur cobalt resin, desalting column)
In the case of B1, the “stoichiometry N” value [1] is reported as 4 and 8 and the Km [2] is reported as 1970 ± 240 µM.

B2: PFKL(V545L, V582M) (PFKL−hook) (Homo sapiens; V545L/V582M) (protein)
chain: B1 chain with V545L, V582M
notes: made in house; host or cells: Sf9 insect cells (baculovirus)
For B2, the Km [3] was 1200 ± 90 µM.

B3: PFKL(K315R) (PFKL−pocket) (Homo sapiens; K315R) (protein)
chain: B1 chain with K315R
notes: as for B2
For B3, the Km [4] was 2060 ± 120 µM.
